The record followed here is patent US20090280132A1.

The experiment concerns the target Fc receptor (FcR) on antigen presenting cells. Briefly: cell-based or functional assay.

As for “Ig-W (from UniProt P01867 1-335) (antibody)”, the inhibition of IL-2 production in Ig-PLP1 mediated activation of 4E3 T cells turned out to be 50%.
